Read-outs that look alike come from different tables or passages of the source. Ends that are not written are not given here.
Legend:
[1] = biological target: soluble DR4 (sDR4) recombinant protein (human); assay: ELISA
[2] = biological target: “empty” DQ6 (DQA1*01:02/DQB1*06:02) with leucine zippers displayed on yeast as a noncovalent αβ heterodimer (human); assay: flow cytometry on cells
[3] = biological target: soluble DQ6 (sDQ6) recombinant protein, CLIP87–101 linker cleaved by thrombin (human); assay: ELISA
[4] = biological target: “empty” DQ6 (DQA1*01:02/DQB1*06:02) with leucine zippers displayed on yeast as a noncovalent αβ heterodimer (human); assay: flow cytometry on cells; remark: listed apart in the source
[5] = biological target: soluble DQ6 (sDQ6) recombinant protein, CLIP87–101 linker cleaved by thrombin (human); assay: ELISA; remark: listed apart in the source

Row | Molecule | %Competition [2] [%] | also measured
1 | HA306–318 peptide, nonbiotinylated | – | %Competition at [competitor]:[indicator] = 10 [1]: 75%
2 | HCRT1–15 peptide (from UniProt O43612 1-15) | > 50 | –
3 | HCRT21–35 peptide (from UniProt O43612 21-35) | > 50 | –
4 | HCRT25–39 peptide (from UniProt O43612 25-39) | > 50 | –
5 | HCRT53–67 peptide (from UniProt O43612 53-67) | > 50 | –
6 | HCRT57–71 peptide (from UniProt O43612 57-71) | > 50 | –
7 | HCRT81–95 peptide (from UniProt O43612 81-95) | > 50 | –
8 | HCRT85–99 peptide (from UniProt O43612 85-99) | > 50 | –
9 | HCRT89–103 peptide (from UniProt O43612 89-103) | > 75 | %Competition at [competitor]:[indicator] = 100 [3]: > 75%; %Competition at [competitor]:[indicator] = 10 [2]: > 75%
10 | SARS-CoV-2 spike peptide S652–668 (from UniProt P0DTC2 652-668) | – | %Competition at [competitor]:[indicator] = 100 [1]: < 50%
11 | SARS-CoV-2 spike peptide S1058–1074 (from UniProt P0DTC2 1058-1074) | – | fold weaker BA than HA306–318 (IC50 normalised to HA306–318) [1]: 20 fold
12 | MNLPSTKVSWAAV (not fully specified) [HCRT1–13 peptide, nonbiotinylated] | – | %Competition at [competitor]:[indicator] = 10 [4]: 75%; IC50 [4]: 30 µM; %Competition at [competitor]:[indicator] = 10 [5]: 75%

Source: paper PMC8193015
